This series in a line: protein stability index of a GFP-peptide fusion (yeast GPS) (PSI 1-4); higher = more stable; sorted into four equal gates, so the index is relative within each strain. A digest of the protocol:
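Peptides tiling yeast proteins in 17-residue segments were fused downstream of GFP, with Cherry expressed from the same plasmid. As a pooled library in yeast, mid-log cultures grown in leucine-free medium were sorted into four equal gates by GFP/Cherry fluorescence ratio. Gate plasmids were PCR-amplified and Illumina-sequenced, and barcodes linked reads to strains. Each peptide received a protein stability index equal to the sum of each gate's read frequency times its gate number.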

± gives the uncertainty stated by the source.

For the sequence ESDSKATLQSNEPTQKD [DSN1], the protein stability index reads like this: (doa10∆) 2.81 ± 0.12; (pdr5∆) 2.94 ± 0.14; (san1∆) 2.99 ± 0.071; (ubr1∆) 3.02 ± 0.086.

Turning to TLLPGLQDEVMNIKPVQ [RPS2], the protein stability index by setting is: (doa10∆) 1.21 ± 0.14; (pdr5∆) 1.35 ± 0.13; (san1∆) 1.18 ± 0.26; (ubr1∆) 1.09 ± 0.14.

The sequence SIAAERYDYSDEVGRRS [YCG1] gave a protein stability index (doa10∆) of 3 ± 0.075, a protein stability index (pdr5∆) of 2.99 ± 0.11, a protein stability index (san1∆) of 2.65 ± 0.14 and a protein stability index (ubr1∆) of 3.04 ± 0.063.

Turning to QQQQQNQQQQNQQPQQQ [SWI1], the protein stability index turned out to be 2.99 ± 0.041 (doa10∆), 3.06 ± 0.043 (pdr5∆), 2.88 ± 0.032 (san1∆) and 2.85 ± 0.038 (ubr1∆).

For the sequence INIDDLLYELTAFKATV [YJL039C/NUP192], the protein stability index reads like this: (doa10∆) 2.58 ± 0.052; (pdr5∆) 2.67 ± 0.055; (san1∆) 2.41 ± 0.054; (ubr1∆) 2.44 ± 0.043.

For IKLDIVVGQNQLIDQFE [SNF5], the protein stability index reads like this: (doa10∆) 1.88 ± 0.075; (pdr5∆) 2.07 ± 0.098; (san1∆) 2.11 ± 0.092; (ubr1∆) 2.25 ± 0.085.

In turn, SGTFYRYNAKAIGSGSE [PUP2] came in with a protein stability index (doa10∆) of 3.15 ± 0.088, a protein stability index (pdr5∆) of 3.14 ± 0.09, a protein stability index (san1∆) of 3.37 ± 0.06 and a protein stability index (ubr1∆) of 2.98 ± 0.073.

Consider LSNLSKDIKANLSSNVN [YCS4], for which the protein stability index runs as follows: (doa10∆) 2.85 ± 0.05; (pdr5∆) 3.03 ± 0.068; (san1∆) 3.04 ± 0.06; (ubr1∆) 2.93 ± 0.046.

With AHCILGIGGDHAKFSPV [RPC40], the protein stability index is, setting by setting: (doa10∆) 2.59 ± 0.085; (pdr5∆) 2.82 ± 0.15; (san1∆) 2.41 ± 0.12; (ubr1∆) 2.85 ± 0.068.

For the sequence TRAKAKVEEMNNIIAAS [RPL36A], the protein stability index (pdr5∆) was 3.18 ± 0.14.

Turning to AKLSERSNGSVASLSKR [YJL039C/NUP192], the protein stability index (doa10∆) came out at 2.33 ± 0.052, the protein stability index (pdr5∆) is 2.06 ± 0.043, the protein stability index (san1∆) came to 1.81 ± 0.054 and the protein stability index (ubr1∆) was determined as 1.89 ± 0.035.

Regarding DVTAIQTWSYLSLYSTD [ECM29], the protein stability index turned out to be 1.52 ± 0.038 (doa10∆), 1.91 ± 0.036 (pdr5∆), 1.9 ± 0.055 (san1∆) and 1.92 ± 0.036 (ubr1∆).

DYIEFNITFSEELVSLA [YJL039C/NUP192]: the protein stability index was determined as 1.54 ± 0.27 (san1∆) and 1.61 ± 0.28 (ubr1∆).

Sequence HDTLNNEIANSIIQSKQ [BRR2] had a protein stability index (doa10∆) of 2.76 ± 0.051, a protein stability index (pdr5∆) of 2.95 ± 0.064, a protein stability index (san1∆) of 2.88 ± 0.058 and a protein stability index (ubr1∆) of 2.88 ± 0.052.

The sequence RGQQVENPTDNFIIWIN [GRR1] returned a protein stability index (doa10∆) of 2.08 ± 0.066, a protein stability index (pdr5∆) of 2.35 ± 0.082, a protein stability index (san1∆) of 2.59 ± 0.063 and a protein stability index (ubr1∆) of 2.61 ± 0.061.

HDIAYSKDGLPNKVKTE [RRP6]: the protein stability index (doa10∆) was determined as 2.74 ± 0.14, the protein stability index (pdr5∆) turned out to be 2.51 ± 0.23, the protein stability index (san1∆) was found to be 2.85 ± 0.18 and the protein stability index (ubr1∆) worked out at 3.2 ± 0.29.

For TKLDQVWGSETVASSKV [RPL4A], the protein stability index by setting is: (doa10∆) 2.72 ± 0.075; (pdr5∆) 3 ± 0.1; (san1∆) 2.84 ± 0.05; (ubr1∆) 2.98 ± 0.044.

Consider IDQDIHGIVFQHPFPLA [SSN2], for which the protein stability index runs as follows: (doa10∆) 2.13 ± 0.044; (pdr5∆) 2.25 ± 0.051; (san1∆) 2.24 ± 0.059; (ubr1∆) 2.64 ± 0.032.

As for KLSESLDTRKELWRKEQ [SMC3], the protein stability index by setting is: (doa10∆) 1.29 ± 0.077; (pdr5∆) 1.75 ± 0.1; (san1∆) 3.19 ± 0.19; (ubr1∆) 1.82 ± 0.12.

On to RLFNVVVQDSQTATQLL [SMC2], for which the protein stability index by setting is: (doa10∆) 2.94 ± 0.07; (pdr5∆) 2.79 ± 0.11; (san1∆) 2.61 ± 0.1; (ubr1∆) 2.44 ± 0.079.

Take SKINSTELLDYATKLSK [MED4]: the protein stability index by setting is: (doa10∆) 2.79 ± 0.23; (pdr5∆) 2.72 ± 0.12; (san1∆) 2.49 ± 0.072; (ubr1∆) 2.94 ± 0.15.

For the sequence NSGNSNSNSNQQSTDAD [RPT1], the protein stability index (doa10∆) amounted to 2.59 ± 0.081, the protein stability index (pdr5∆) came out at 2.48 ± 0.081, the protein stability index (san1∆) was 2.48 ± 0.09 and the protein stability index (ubr1∆) came to 2.64 ± 0.052.

As to SNKKETKKKRKPTEVND [ITC1], the protein stability index (doa10∆) is 3.15 ± 0.078, the protein stability index (pdr5∆) was 3.31 ± 0.074, the protein stability index (san1∆) is 3.26 ± 0.07 and the protein stability index (ubr1∆) came out at 3.23 ± 0.062.

Regarding SGLPTCDYYNTFLLNNK [RPN2], the protein stability index is 2.94 ± 0.069 (doa10∆), 2.96 ± 0.071 (pdr5∆), 2.68 ± 0.062 (san1∆) and 2.51 ± 0.069 (ubr1∆).

As for NIALVSKLRNNIRSQLL [SRP54], the protein stability index runs as follows: (doa10∆) 2.13 ± 0.069; (pdr5∆) 2.56 ± 0.058; (san1∆) 2.5 ± 0.053; (ubr1∆) 2.61 ± 0.065.

Regarding GAAANNNDQKRQQAYKT [YJL041W/NSP1], the protein stability index runs as follows: (doa10∆) 3.06 ± 0.063; (pdr5∆) 3.02 ± 0.056; (san1∆) 3.09 ± 0.042; (ubr1∆) 3.22 ± 0.066.

In the case of CLTGTVAARMFHILLKL [ECM29], the protein stability index is, setting by setting: (doa10∆) 2.42 ± 0.093; (pdr5∆) 2.03 ± 0.096; (san1∆) 2.74 ± 0.058; (ubr1∆) 2.44 ± 0.069.

Source of the values: the supplement of paper PMC9732359.
